According to the Human Domainome abundance scans (Beltran et al. 2025):

B1: POU domain, class 3, transcription factor 1, residues 247 to 324; numbered along this chain, Q03052 (parent)
chain: EDAPSSDDLEQFAKQFKQRRIKLGFTQADVGLALGTLYGNVFSQTTICRFEALQLSFKNMCKLKPLLNKWLEETDSSS

Variants of: B1
Test: abundance fitness (aPCA) (normalised: wild type 0, dead -1); higher = more abundant; growth selection in yeast, the domain comes from the species named
Conditions: Homo sapiens

Abundance fitness, by site and new letter:
L67: D -0.167, C -0.427, M -0.084, S -0.829, V -0.563, H -0.04, T -0.711, F -0.698, N -0.553, P -0.613, I -0.321, Q -1.2, A -0.562, W -0.81, R -0.716, E -0.951
E72: S -0.212, Y -0.19, T -0.148, K -0.049, V -0.1, I -0.245, P -0.736, L -0.024, H -0.018, R -0.079, A -0.193, Q -0.143, D 0.004, F -0.493, M 0.037, N -0.152, G -0.368, C -0.247
S76: K 0.12, L -0.112, G 0.062, M 0.012, A -0.096, C -0.341, H -0.196, D 0.089, I -0.426
E73: G -0.196, N -0.154, Y -0.197, S -0.126, P -0.378, H -0.03, A -0.038, D 0.267, M -0.012, Q 0.041, T -0.034, F -0.105, I -0.351, L -0.018, V -0.128, W -0.137, R -0.081
L71: P -1.1, M 0.03, V -0.356, S -0.706, E -0.63, T -0.988, K -0.677, N -0.341, A -0.369, G -0.851, D -0.711, Q -0.504, F -0.82, C -0.712, R -0.569, W -0.584, I -0.019, H -0.402
W70: A -0.689, K -0.756, M -0.756, P -0.93, C -0.762, I -0.707, S -0.348, G -0.687, D -0.485, Q -0.881, H -0.374, L -0.549, Y -0.296, V -0.58, T -0.595, E -0.753, R -0.679, F 0.086
T74: M -0.062, N 0.278, A 0.12, I -0.479, V 0.042, E -0.121, K 0.04, S -0.141, R -0.009, H 0.231, C -0.009, W -0.224, F 0.453, Q 0.089, G -0.418, Y -0.156
N68: D -0.071, T 0.145, V -0.008, W -0.118, L 0.038, K 0.007, I -0.028, Y -0.162, Q 0.011, P -0.763, A 0.029, F -0.175, G -0.049, R -0.086, M 0.042, S 0.02, H 0.108, E 0.082
K69: Q -0.02, R -0.058, E -0.342, M -0.144, C -0.361, Y -0.159, T -0.251, W -0.671, V -0.559, I 0.102, A -0.161, P -0.662, G -0.119, D -0.19, H -0.254, N -0.249
L66: R -0.504, S -0.767, Y 0.053, V -0.18, W -0.33
D75: S 0.138, K -0.207, C 0.089, Y 0.151, E 0.109, Q 0.165, P 0.178, H 0.395, M -0.4, I -0.038, V -0.115, A -0.015, L -0.214, R -0.077, T -0.274, W -0.262
